Patent US20150259721A1

Target: Her2 (UniProt P04626)
Assay: cell-based or functional assay

Substance | EC50 nM, concentration of the drug to kill 50% of the tumor cells in vitro, HCC1954 cells [nM] | EC50 nM, concentration of the drug to kill 50% of the tumor cells in vitro, PC3 cells [nM] | EC50 nM, concentration of the drug to kill 50% of the tumor cells in vitro, SKOV3 cells [nM] | EC50 nM, in vitro potency (cytotoxicity), SKBR3 cells [nM] | EC50 nM, in vitro potency (cytotoxicity), SKOV3 cells [nM]
4D5-AzAb (HC359)-AF (antibody) | 0.0241 | 1.33 | 0.16 |  | 
4D5-AzAb (LC81)-AF (antibody) | 0.0437 | 1.13 | 0.201 |  | 
4D5-AzAb (HC274)-AF (antibody) | 0.0212 |  | 0.187 | 0.0074 | 0.019
4D5-AzAb (HC274: LC81)-AF (antibody) | 0.0149 |  | 0.0523 |  | 
